What was measured:
[1] = system: 293T cells; test: Level of HA-tagged SMN proteins, Western blot with anti-HA antibody; format: cell-based; conditions: without MG132 treatment
Protocol: FIG. 3, comprising FIG. 3A through FIG. 3D, is a series of images depicting the importance of residue S270 for the activity of the SMNΔ7-DEG through YG+EMLA. FIG. 3A is a schematic illustration depicting seven residues in the YG box that were each mutated to alanine, as indicated. […] depicts the results of Western blot analyses using an anti-HA tag antibody directed against HA-tagged SMN, SMNΔ7, and SMNΔ7^S270A expressed in 293T cells treated with DMSO or 10 μM MG132 (MG) for 16 hours. Fusion proteins were monitored by, and Magoh was used as a control. FIG. 3C is a graph depicting the quantification of HA-tagged proteins depicted in FIG. 3B and compared to HA-SMN without MG132 treatment. Protein amount (%) for SMNΔ7, and SMNΔ7^S270A are calculated relative to HA-SMN not treated with MG132, that is arbitrarily set to 100%. The fold change of each fusion protein amount upon MG132 treatment is indicated in red above the column. […]
To identify specific residues in the SMN07-DEG that are important for its activity, mutagenesis of the YG box was performed wherein every second residue was converted to alanine in the context of full-length SMNΔ7 and determined the half-life of each in 293T cells. […] The levels of the tagged SMN proteins were then monitored by Western blots using anti-HA antibody (FIG. 3B).

[2] = system: S5 cells; test: Rescue of S5 cell viability after tetracycline depletion of SMN; format: cell-based, chicken; conditions: retroviral expression, one week after tetracycline (1 μg/ml)
Protocol: FIG. 4, comprising FIG. 4A through FIG. 4D, is a series of images depicting the functionality of SMNΔ7^S270A in snRNP assembly and its ability to rescue SMN-deficient cells. FIG. 4 A is a series of panels depicting S5 cells cultured in the presence of tetracycline (1 μg/ml) to deplete endogenous SMN and infected with retroviruses expressing SMN, SMNΔ7, or SMNΔ7^S270A. FIG. 4B is a graph depicting cell growth as in FIG. 4A measured by monitoring the number of live cells at the indicated time points following tetracycline addition. FIG. 4C depicts the results of Western blot analyses of SMN protein in rescued cells (10 days after tetracycline addition). FIG. 4D is a graph depicting SMN complex activity (%) as measured by in vitro snRNP assembly on U4 snRNA in cytoplasmic extracts from rescued cells, using U4ΔSm RNA as a control.
S5 cells were maintained and infected with retroviruses expressing SMN, SMNΔ7, and SMNΔ7^S270A as described (Wang et al., 2001, J. Biol. Chem. 276:9599).
To determine whether SMNΔ7^S270A is a functional SMN protein, a previously established cell system, the S5 cell line, was used to investigate if SMNΔ7^S270A could rescue the viability of SMN-depleted cells. […]

[3] = system: 293T cells; test: Protein stability assay: luciferase activity of Luc-fused constructs after CHX treatment; format: cell-based; conditions: Luc fusion in 293T cells, CHX 0.1 mg/ml, up to 10 hours
Excerpt: To construct plasmids expressing Luc-fused proteins, the luciferase gene was cloned into pcDNA3.1 vector at HindIII/KpnI sites, then DNA fragments encoding full-length wild type human SMN, SMNΔ7, several deletion mutants of SMNΔ7, and optiPEST were inserted into the KpnI/XhoI sites. SMNΔ7 mutants with single amino acid change were generated by mutating residues in YG+EMLA to alanine by Quickchange site-directed mutagenesis kit (Stratagene).
Cells (293T cells) were transfected with plasmids expressing various constructs including Luc-SMN, Luc-SMNΔ7, GFP-YG+EMLA or GFP-NS. Forty-eight hours after transfection, the cells were treated with CHX (0.1 mg/ml) for various times as indicated and then assayed for luciferase activity. Luciferase activity at each time point was calculated by comparison to those at time 0, which was set to 100%. Luciferase activities were measured using One-Glo reagent (Promega).
A reporter system that recapitulates the differential stability of full-length SMN and SMNΔ7 and allows quantitative assessment of SMNΔ7's instability determinants was developed. […] Forty-eight hours after transfection, cells were treated with the protein synthesis inhibitor cycloheximide (CHX), and luciferase activity was measured at time intervals of up to 10 hours. […]

B1: SMNΔ7: SMN protein from exon 7 skipping, lacks C-terminal 16 amino acids and acquires EMLA (protein, listed as Homo sapiens)
chain: MAMSSGGSGGGVPEQEDSVLFRRGTGQSDDSDIWDDTALIKAYDKAVASFKHALKNGDICETSGKPKTTPKRKPAKKNKSQKKNTAASLQQWKVGDKCSAIWSEDGCIYPATIASIDFKRETCVVVYTGYGNREEQNLSDLLSPICEVANNIEQNAQENENESQVSTDESENSRSPGNKSDNIKPKSAPWNSFLPPPPPMPGPRLGPGKPGLKFNGPPPPPPPPPPHLLSCWLPPFPSGPPIIPPPPPICPDSLDDADALGSMLISWYMSGYHTGYYMEMLA
How did the “amount of HA-tagged protein” value [1] turn out when B1 was run?
Its value is “much lower than that of SMN”.

What about the “rescue of viability of SMN-depleted S5 cells” value [2] of the same molecule?
The value was “did not”.

And the “half-life (t1/2)” value [3]?
The value was about 3 h.
